Our source for the Kd, koff and kon values is US20230322908A1 (AC IMMUNE, published 2023).

Positions count from the first letter of the chain named. Names may count otherwise.

T1: TP-51 peptide (aa 352-414 of SEQ ID NO:1) (human)
T1 construct: Synthetic peptide (Pepscan)
T1 peptide: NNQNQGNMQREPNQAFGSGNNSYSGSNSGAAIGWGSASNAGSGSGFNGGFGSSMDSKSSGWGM

B1: 642D12B4 Fab (Fab, V domains shown)
VH: EVQLQQSGAELVKPGASVRLSCTASGFNIKDPYMHWVRQRPKQGLEWIGRIDPADGNTKYDPKFQGKATLTADTSSNVAYLHLSSLTSEDTAVYYCARFYGSSHWYFDVWGAGTTVTVSS
VL: DIKMTQSPSSMYASLGERVTITCKASQDIKRYLSWYQQKPWKSPKILIYYATSLADGVPSRFSGTGSGQDYSLTISSLESDDVATYYCLQQGESPYTFGGGTKLEIK
notes: Fab fragment; also called Fab fragment of ACI-7069-642D12-Ab1
B2: ACI-7069-642A10-Ab1 (antibody, mouse IgG1, V domains shown)
VH: QVQLQQPGAELVKPGASVKLSCKASGYTFTKYWMHWVKQRPGQGLEWIGEINPSNGRTNYNEKFKSKATLTVDKSSSTAYMQLSSLTSEDSAVYYCARYMDYWGQGTSVTVSS
VL: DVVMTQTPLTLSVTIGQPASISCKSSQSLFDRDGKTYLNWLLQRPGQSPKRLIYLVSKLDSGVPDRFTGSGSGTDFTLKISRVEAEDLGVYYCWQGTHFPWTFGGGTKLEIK
notes: Mouse IgG1, kappa, from hybridoma; also called 642A10B11
B3: cACI-7069-633B12-Ab1 (human IgG4 S228P chimeric) (antibody, V domains shown)
VH: EVQLQQSGPELVKPGASVKISCKTSGFTFTEYSMHWVKQSHGKSLEWIGGINPNNGGTSYNQKFKGKATLTVDKSSSTAYMELRSLTSEDSAVYYCARESWGQGTTLTVSS
VL: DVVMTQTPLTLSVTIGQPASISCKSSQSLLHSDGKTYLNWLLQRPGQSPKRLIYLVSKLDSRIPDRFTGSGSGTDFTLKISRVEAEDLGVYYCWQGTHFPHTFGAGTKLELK
notes: Murine variable domains on a human IgG4 (S228P) constant domain and human kappa; also called chimeric antibody
B4: hACI-7069-633B12-Ab1_H19L14 (IgG4) (antibody, V domains shown)
VH: QVQLVQSGAEVKKPGASVKVSCKTSGFTFTEYSMHWVRQAPGQRLEWIGGINPGNAGTSYNQKFKGRVTITVDTSASTAYMELSSLRSEDTAVYYCARESWGQGTTVTVSS
VL: DVVMTQSPLSLPVTLGQPASISCKSSQSLLHSDAKTYLNWLQQRPGQSPRRLIYLVSKLDSGVPDRFSGSGSGTDFTLKISRVEAEDLGVYYCFQGTHFPHTFGQGTKLEIK
B5: hACI-7069-633B12-Ab1_H19L18 (IgG4) (antibody, V domains shown)
VH: B4 VH
VL: B4 VL with G62R
B6: hACI-7069-633B12-Ab1_H19L19 (IgG4) (antibody, V domains shown)
VH: B4 VH
VL: B4 VL with R50K, G62R
B7: hACI-7069-633B12-Ab1_H16L14 (IgG4) (antibody, V domains shown)
VH: B4 VH with Q1E, T24A, I48M
VL: B4 VL
B8: hACI-7069-633B12-Ab1_H20L19 (IgG4) (antibody, V domains shown)
VH: B4 VH with Q1E
VL: B4 VL with R50K, G62R
B9: hACI-7069-633B12-Ab1_H20L18 (IgG4) (antibody, V domains shown)
VH: B4 VH with Q1E
VL: B4 VL with G62R
B10: hACI-7069-633B12-Ab1_H19L17 (IgG4) (antibody, V domains shown)
VH: B4 VH
VL: B4 VL with Q42L
B11: hACI-7069-633B12-Ab1_H17L14 (IgG4) (antibody, V domains shown)
VH: B4 VH with T24A, R38K, I48M
VL: B4 VL
B12: hACI-7069-633B12-Ab1_H20L14 (IgG4) (antibody, V domains shown)
VH: B4 VH with Q1E
VL: B4 VL
B13: hACI-7069-633B12-Ab1_H15L14 (IgG4) (antibody, V domains shown)
VH: B4 VH with T24A, I48M
VL: B4 VL

For the first assay, the target named is T2, recombinant human full-length TDP-43 (TAR DNA-binding protein 43), soluble (human, UniProt Q13148 1-414).
T2 construct: Used on Luminex beads, coated on ELISA plates, and immobilized or injected in SPR; also called FL TDP-43; TDP-43 protein
T2 sequence (Q13148 whole entry): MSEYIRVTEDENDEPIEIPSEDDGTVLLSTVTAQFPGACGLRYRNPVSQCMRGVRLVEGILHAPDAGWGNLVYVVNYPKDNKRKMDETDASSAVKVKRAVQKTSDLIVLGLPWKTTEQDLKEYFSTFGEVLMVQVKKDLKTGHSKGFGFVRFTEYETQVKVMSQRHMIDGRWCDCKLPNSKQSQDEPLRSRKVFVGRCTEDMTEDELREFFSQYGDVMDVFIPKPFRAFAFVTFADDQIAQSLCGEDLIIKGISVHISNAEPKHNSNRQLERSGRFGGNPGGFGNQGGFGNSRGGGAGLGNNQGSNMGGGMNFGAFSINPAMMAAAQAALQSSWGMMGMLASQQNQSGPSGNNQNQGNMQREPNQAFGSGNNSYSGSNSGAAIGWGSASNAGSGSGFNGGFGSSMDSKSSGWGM
The experiment in a line: SPR, immobilized soluble TDP-43. The protocol:
(§1) Binding avidity to soluble or aggregated FL TDP-43 was evaluated by determing the dissociation constants (KD) using surface plasmon resonance (SPR; Biacore T200, GE Healthcare Life Sciences). Recombinant human soluble or aggregated FL TDP-43 were immobilized on a CM5 Series S sensor chip (GE Healthcare Life Sciences) by amine coupling. Soluble TDP-43 was immobilized at a concentration of 5 µg/ml in 10 mM sodium acetate (pH 4.5) with a flow rate of 5 µl/min for 420 seconds resulting in an immobilization level of 150 RU. Aggregated TDP-43 was immobilized at a concentration of 50 µg/ml in 10 mM sodium acetate (pH 4.5) with a flow rate of 5 µl/min for 840 seconds resulting in an immobilization level of 110 RU. Biotinylated TP-73 peptide (aa 181-190 of SEQ ID NO:1) was immobilized on a Series S Sensor Chip SA (GE Healthcare Life Sciences) at a concentration of 5 µg/ml in PBS-P⁺ with a flow rate of 5 µl/min for 30 seconds resulting in an immobilization level of 400 RU. […] The antibodies were injected at a flow rate of 50 µl/min for 90 seconds contact time and 700 seconds dissociation phase followed by three regenerations with 10 mM glycine-HCl pH 1.7. For the optimized SPR protocol the antibodies were diluted 3-fold starting from 300 nM and dilute down to 1.2 nM and injected for 300 seconds at 30 µl/min followed by 600 seconds dissociation. The surface was regenerated by one injection with 10 mM glycine-HCl pH 1.7. Results obtained from binding kinetics were double-referenced using a blank flow cell and a buffer cycle and were evaluated with a global 1:1 fitting model with RI. Avidities for 11 antibodies and two Fab fragments are depicted in Table 8. […] In addition, some antibodies show preferential binding to aggregated TDP-43 as compared with soluble TDP-43.
B1: the Kd stood at 21.8 nM, the koff worked out at 0.00267 s⁻¹ and the kon stood at 128000 M⁻¹ s⁻¹.

A further assay deals with T3, recombinant human aggregated full-length TDP-43 (human, UniProt Q13148 1-414).
T3 construct: also called aggregated TDP-43; aggregated FL TDP-43
T3 sequence (Q13148 whole entry): as above
The experiment in a line: SPR, immobilized aggregated TDP-43. The method, then:
as §1
B1: the Kd came out at 21.8 nM, the koff came to 0.00176 s⁻¹ and the kon came to 94000 M⁻¹ s⁻¹.

With B2, the Kd worked out at 4.64 nM, the koff turned out to be 0.00585 s⁻¹ and the kon worked out at 1.26e+06 M⁻¹ s⁻¹.

A further assay has as its target T1, TP-51 peptide (aa 352-414 of SEQ ID …). Briefly: SPR 8K, mAb captured, TP-51 injected. The protocol: The instrument was primed with running buffer PBS-P+. Fc 1-2 of channels 1-8 (8 K) were activated with a fresh solution of EDC/NHS(Amine Coupling Kit, 1:1 ratio of both reagents, GE Healthcare Life Sciences, BR-1006-33) at 10 µL/min for 420 sec and goat anti-human antibody (GE Healthcare Life Sciences, 29234600) was immobilized at 25 µg/mL in 10 mM sodium acetate pH 5 for 420 sec. Next, all Fc were quenched with 1 M ethanol amine(GE Healthcare Life Sciences, BR-1006-33), for 420 sec. Any non-covalently bound antibodies were removed by two regenerations with 10 mM Glycine-HCl pH 1.7 for 30 sec. Immobilization levels were evaluated following ethanolamine quenching (10000 RU for all channels).
Each cycle started with non-covalent capture of humanized variants which were diluted in running buffer to a final concentration of 2 µg/mL and injected for 60 sec with a flow rate of 10 µL/min. TDP-43 mAbs were captured on channels 1-8, leaving Fc 1 as a blank Fc. Capture levels were evaluated following a 120 sec stabilization period after each mAb injection and ranged from 300-500 RU.
Injections of TP-51 peptide (Pepscan) were performed in single-cycle kinetics with increasing concentrations ranging from 1.2-100 nM prepared from serial 3-fold dilutions. Injections were performed with contact times of 300 sec/injection at a flow rate of 25 µL/min. A dissociation phase of 3600 sec followed the final injection. Sensor surface was regenerated by one injection of 10 mM Glycine-HCl pH 1.7 at a flow rate of 10 µL/min for 120 sec, followed by a stabilization period of 300 sec. Results obtained from single-cycle kinetics were double-referenced using the blank Fc 1 and buffer cycles and evaluated by Biacore 8 K evaluation software with 1:1 kinetic fit model with RI and global Rmax. The following kinetic parameters were obtained: association rate constant (ka), dissociation rate constant (kd), affinity constant (KD) and saturation response (Rmax).
Molecule B3 yielded a Kd of 1.7 nM, a koff of 0.00021 s⁻¹ and a kon of 130000 M⁻¹ s⁻¹.

In the case of B4, binding was characterised by a dissociation constant (Kd) of 9.4 nM, the koff came to 0.0011 s⁻¹ and the kon turned out to be 120000 M⁻¹ s⁻¹.

Molecule B5 displayed a Kd of 1.9 nM, a koff of 0.00023 s⁻¹ and a kon of 120000 M⁻¹ s⁻¹.

The molecule B6 returned a Kd of 2.3 nM, a koff of 0.00026 s⁻¹ and a kon of 110000 M⁻¹ s⁻¹.

B7 had a Kd of 9.9 nM, a koff of 0.0013 s⁻¹ and a kon of 140000 M⁻¹ s⁻¹.

B8 registered a Kd of 2.9 nM, a koff of 0.00026 s⁻¹ and a kon of 90000 M⁻¹ s⁻¹.

Consider B9, for which binding was put at a Kd of 2.1 nM, the koff came out at 0.00021 s⁻¹ and the kon was 97000 M⁻¹ s⁻¹.

Take B10: the Kd turned out to be 13.1 nM, the koff came to 0.00093 s⁻¹ and the kon came to 70000 M⁻¹ s⁻¹.

The molecule B11 returned a Kd of 9 nM, a koff of 0.0012 s⁻¹ and a kon of 130000 M⁻¹ s⁻¹.

In the case of B12, the Kd was 11.1 nM, the koff worked out at 0.0014 s⁻¹ and the kon is 130000 M⁻¹ s⁻¹.

B13 showed a Kd of 8.3 nM, a koff of 0.00094 s⁻¹ and a kon of 110000 M⁻¹ s⁻¹.

The target of another assay is T2, recombinant human full-length TDP-43 …. Briefly: SPR 8K, immobilized soluble TDP-43. The protocol:
The instrument was primed with running buffer PBS-P+ and flow cells (Fc) 1 and 2 of channels 1-8 were activated with a fresh solution of EDC/NHS (Amine Coupling Kit, 1:1 ratio of both reagents, GE Healthcare Life Sciences, BR-1006-33) at 10 µL/min for 420 sec. Soluble TDP-43 (Selvita) was diluted in sodium acetate pH 4.5 to a final concentration of 5 µg/mL and injected for 900 sec with a flow rate of 5 µL/min on Fc 2. All flow cells were quenched with 1 M ethanol amine (GE Healthcare Life Sciences, BR-1006-33), at 10 µL/min for 420 sec. Immobilization levels after ethanolamine quenching were 680 RU on all eight channels. Prior to analysis, two Startup cycles were run. Increasing mAbs concentrations were injected in single-cycle kinetics ranging from 1.2 to 100 nM, prepared from a 3-fold serial dilution in running buffer, with a contact time of 300 sec and a dissociation time of 900 sec at a flow rate of 30 µL/min. Each cycle was followed by one regeneration using 10 mM Glycine-HCl pH 1.7 with a contact time of 30 sec at 30 µL/min, followed by a stabilization period of 300 sec. Results obtained from single-cycle kinetics were double-referenced using the blank Fc 1 and buffer cycles and evaluated using Biacore 8 K evaluation software using the 1:1 kinetic fit model with RI and global Rmax. The following kinetic parameters were obtained: association rate constant (ka), dissociation rate constant (kd), affinity constant (KD) and saturation response (Rmax).
In the case of B3, the Kd amounted to 0.238 nM, the koff was found to be 9.9e-06 s⁻¹ and the kon amounted to 42000 M⁻¹ s⁻¹.

As to B4, the Kd turned out to be 1.01 nM, the koff is 3e-05 s⁻¹ and the kon came to 30000 M⁻¹ s⁻¹.

With B5, the Kd worked out at 0.431 nM, the koff was determined as 1.4e-05 s⁻¹ and the kon worked out at 33000 M⁻¹ s⁻¹.

In the case of B6, the Kd worked out at 0.508 nM, the koff was determined as 1.5e-05 s⁻¹ and the kon stood at 29000 M⁻¹ s⁻¹.

For the molecule B7, the Kd was found to be 0.605 nM, the koff was 3.3e-05 s⁻¹ and the kon is 55000 M⁻¹ s⁻¹.

For B8, the Kd was 0.684 nM, the koff was 1.9e-05 s⁻¹ and the kon was determined as 27000 M⁻¹ s⁻¹.

As for B9, the Kd was determined as 0.45 nM, the dissociation rate constant (koff) was determined as 1.4e-05 s⁻¹ and the kon was 32000 M⁻¹ s⁻¹.

Take B10: the dissociation constant Kd is 1.38 nM, the koff amounted to 3.5e-05 s⁻¹ and the kon worked out at 26000 M⁻¹ s⁻¹.

Consider B11, for which the Kd was found to be 1.34 nM, the koff stood at 4.2e-05 s⁻¹ and the kon stood at 31000 M⁻¹ s⁻¹.

Regarding B12, the Kd was 1.74 nM, the koff worked out at 4.4e-05 s⁻¹ and the kon came out at 25000 M⁻¹ s⁻¹.

Turning to B13, the Kd was 1.2 nM, the koff was determined as 3.5e-05 s⁻¹ and the kon was found to be 29000 M⁻¹ s⁻¹.

By Kd is commonly meant the constant that tells how readily two partners part at equilibrium. A word on the koff: it is the rate constant with which the complex falls apart. For orientation: kon means the rate constant with which the complex forms.
